These results are taken from article PMC9049607.

What all share (assay): purified protein
Substrate in series [1]: CC(C)=CCC/C(C)=C/C=O
The following applies: 0.2 mM NADH, 100 mM PBS pH 8.0, 30°C.

Substrate in series [2]: CC(C)=CCC/C(C)=C\C=O
To be noted: 0.2 mM NADH, 100 mM PBS pH 8.0, 30°C.

Substrate in series [3]: NC(=O)C1=CN([C@@H]2O[C@H](COP(=O)(O)OP(=O)(O)OC[C@H]3O[C@@H](n4cnc5c(N)ncnc54)[C@H](O)[C@@H]3O)[C@@H](O)[C@H]2O)C=CC1
To be noted: 5 mM (E/Z)-citral, 100 mM PBS pH 8.0, 30°C, varied: cofactor.

B1: OYE2p (Saccharomyces cerevisiae S288C) (protein)
chain: PFVKDFKPQALGDTNLFKPIKIGNNELLHRAVIPPLTRMRAQHPGNIPNRDWAVEYYAQRAQRPGTLIITEGTFPSPQSGGYDNAPGIWSEEQIKEWTKIFKAIHENKSFAWVQLWVLGWAAFPDTLARDGLRYDSASDNVYMNAEQEEKAKKANNPQHSITKDEIKQYVKEYVQAAKNSIAAGADGVEIHSANGYLLNQFLDPHSNNRTDEYGGSIENRARFTLEVVDAVVDAIGPEKVGLRLSPYGVFNSMSGGAETGIVAQYAYVLGELERRAKAGKRLAFVHLVEPRVTNPFLTEGEGEYNGGSNKFAYSIWKGPIIRAGNFALHPEVVREEVKDPRTLIGYGRFFISNPDLVDRLEKGLPLNKYDRDTFYKMSAEGYIDYPTYEEALKLGWDKN
For the protein B1, in the series “purified protein [1]”, the Km turned out to be 120 ± 25 µM, the kcat is 0.213 ± 0.008 s⁻¹ and the kcat/Km amounted to 1780 ± 305 M⁻¹ s⁻¹. Moreover, in “purified protein [2]”, the Km worked out at 310 ± 47 µM, the kcat is 0.13 ± 0.008 s⁻¹ and the kcat/Km stood at 421 ± 39 M⁻¹ s⁻¹. Also, the Km in the series “purified protein [3]” worked out at 14 ± 4 µM.
